As a reminder, the stoichiometry N is the number of molecules, sites or subunits per partner or assembly.

Data on one molecule can be found in publication doi:10.1101/2024.07.02.601760.

For this assay, the target named is T1, Arabidopsis thaliana 14-3-3 kappa (Arabidopsis thaliana), P48348.
T1 chain: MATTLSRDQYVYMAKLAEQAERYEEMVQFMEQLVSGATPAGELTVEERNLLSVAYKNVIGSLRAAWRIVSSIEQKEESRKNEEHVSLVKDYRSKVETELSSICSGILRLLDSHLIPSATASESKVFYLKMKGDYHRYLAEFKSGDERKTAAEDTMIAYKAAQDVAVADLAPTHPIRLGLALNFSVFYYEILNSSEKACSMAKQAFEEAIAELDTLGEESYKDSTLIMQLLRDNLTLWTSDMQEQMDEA
As to the kind of experiment: SEC-MALS. The following applies: remark: other sources report otherwise.

B1: Arabidopsis thaliana 14-3-3 kappa, P48348 1-248 (natural protein)
chain: T1 chain
In turn, B1 returned a stoichiometry N of 2.
